In one series the test system is P09493. Briefly: viscosity (falling ball micro viscometer); Tpm alone at 1.0 or 2.0 mg/mL; 30 mM Hepes-Na pH 7.3, 100 mM NaCl, 2 mM DTT; 20 °C; excess viscosity over buffer (1.0412 mPa∙s) as measure of head-to-tail interaction between Tpm dimers. As to conditions: other: viscosity (falling ball micro viscometer).
Assay in series [1]: as above
As to conditions: other: viscosity (falling ball micro viscometer).

Series [2] has as its target F-actin from rabbit skeletal muscle, stabilised by phalloidin (rabbit) (UniProt P68135). Briefly: co-sedimentation; 10 uM phalloidin-stabilized F-actin mixed with increasing Tpm (0 to 5.5-6 uM; up to almost 40 uM for Tpm1.12); 30 mM Hepes-Na pH 7.3, 200 mM NaCl; 40 min at 25 °C; 100,000 x g for 40 min; SDS-PAGE of pellet and supernatant; K50% = Tpm concentration at which actin is half-saturated.

Series [3] has the same target. Briefly: temperature dependence of light scattering; 20 uM F-actin stabilized by 20 uM phalloidin and 10 uM Tpm; 30 mM Hepes-Na pH 7.3, 100 mM NaCl, 2 mM DTT; heating 1 °C/min; light scattering at 90 degrees, 350 nm; T_diss = temperature of 50% decrease.

Sequence of Tropomyosin isoform Tpm1.12 (chain, as listed by the source): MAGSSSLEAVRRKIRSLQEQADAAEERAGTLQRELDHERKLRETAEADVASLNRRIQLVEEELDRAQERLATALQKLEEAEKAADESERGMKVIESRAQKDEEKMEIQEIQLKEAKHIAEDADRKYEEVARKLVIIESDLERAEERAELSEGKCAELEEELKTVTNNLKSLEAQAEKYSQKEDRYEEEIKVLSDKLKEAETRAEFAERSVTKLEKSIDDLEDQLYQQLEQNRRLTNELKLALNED
Sequence of Tropomyosin isoform Tpm1.7 with Ala-Ser N-terminal extension (chain, as listed by the source): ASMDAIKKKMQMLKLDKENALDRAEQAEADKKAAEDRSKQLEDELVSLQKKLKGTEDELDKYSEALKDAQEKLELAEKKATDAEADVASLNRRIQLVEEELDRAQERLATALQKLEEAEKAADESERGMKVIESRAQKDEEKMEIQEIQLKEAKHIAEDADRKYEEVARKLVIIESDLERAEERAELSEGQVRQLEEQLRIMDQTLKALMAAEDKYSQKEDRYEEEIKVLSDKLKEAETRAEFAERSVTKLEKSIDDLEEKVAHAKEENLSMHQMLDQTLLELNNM

Take Tropomyosin isoform Tpm1.12: in the series on P09493, the excess viscosity at 1 mg/mL was determined as 0.026 mPa∙s and the excess viscosity at 2 mg/mL is 0.066 mPa∙s.
“Tropomyosin isoform Tpm1.5 with Ala-Ser N-terminal extension”: in series [1], the excess viscosity at 1 mg/mL came to 0.179 mPa∙s and the excess viscosity at 2 mg/mL turned out to be 0.653 mPa∙s.
With “Tropomyosin isoform Tpm1.6 with Ala-Ser N-terminal extension (natural protein)”, the K50% in series [2] came to 0.45 µM. Besides, the T diss in series [3] was 41.4 °C.
Regarding “Tropomyosin isoform Tpm1.7 with Ala-Ser N-terminal extension”, in the series with P09493, the excess viscosity at 1 mg/mL came out at 1.03 mPa∙s and the excess viscosity at 2 mg/mL worked out at 3.58 mPa∙s.
Turning to “Tropomyosin isoform Tpm1.5 with Ala-Ser N-terminal extension (natural protein)”, the K50% in series [2] stood at 1.11 µM. Besides, in series [3], the T diss is 48.9 °C.
In series [1], “Tropomyosin isoform Tpm1.6 with Ala-Ser N-terminal extension” displayed an excess viscosity at 1 mg/mL of 0.474 mPa∙s and an excess viscosity at 2 mg/mL of 1.34 mPa∙s.

For the origin of these results see publication PMC8152229.
